This is an account of results in patent US20250145710A1 (published 2025).

The target of one assay is human CD3 (UniProt P07766 23-207; P04234 22-171; P09693 23-182). Kind of assay: flow cytometry cell binding. (A flow cytometer gives signals particle by particle.)
The target in a further assay is T1, human CLDN6 (human, UniProt P56747 1-220).
T1 chain: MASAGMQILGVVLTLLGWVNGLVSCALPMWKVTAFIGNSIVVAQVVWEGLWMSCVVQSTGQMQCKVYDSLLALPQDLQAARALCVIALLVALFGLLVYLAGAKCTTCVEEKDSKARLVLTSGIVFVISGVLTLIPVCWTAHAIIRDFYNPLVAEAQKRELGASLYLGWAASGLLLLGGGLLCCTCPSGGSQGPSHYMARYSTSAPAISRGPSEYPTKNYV
As to the kind of experiment: flow cytometry cell binding.

human CD3, sequence (P07766 23-207, chain 1 of 3): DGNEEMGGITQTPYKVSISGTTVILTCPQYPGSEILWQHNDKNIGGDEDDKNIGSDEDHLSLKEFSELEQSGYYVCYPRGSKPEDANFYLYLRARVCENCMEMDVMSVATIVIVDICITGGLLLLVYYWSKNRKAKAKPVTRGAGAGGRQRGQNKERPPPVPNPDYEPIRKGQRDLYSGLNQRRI
human CD3, sequence (P04234 22-171, chain 2 of 3): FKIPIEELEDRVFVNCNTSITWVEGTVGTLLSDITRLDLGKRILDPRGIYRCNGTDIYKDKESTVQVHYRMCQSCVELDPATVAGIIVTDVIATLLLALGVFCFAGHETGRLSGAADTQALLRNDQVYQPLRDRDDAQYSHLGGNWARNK
human CD3, sequence (P09693 23-182, chain 3 of 3): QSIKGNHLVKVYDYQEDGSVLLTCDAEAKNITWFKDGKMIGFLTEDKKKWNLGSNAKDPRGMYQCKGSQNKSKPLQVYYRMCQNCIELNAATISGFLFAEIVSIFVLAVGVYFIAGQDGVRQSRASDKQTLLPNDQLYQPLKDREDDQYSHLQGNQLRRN

B1: IMC-21-1 IgG-(scFv)2 antibody (bispecific antibody)
heavy: not shown
light: SYELTQPPSVSVSPGQTARITCSAGSGLYGWYQQKPGQAPVLVIYGTNKRPSGIPERFSGSSSGTTVTLTISGVQAEDEADYYCGSADSSTNAGIFGGGTKLTVLGQPKAAPSVTLFPPSSEELQANKATLVCLISDFYPGAVTVAWKADSSPVKAGVETTTPSKQSNNKYAASSYLSLTPEQWKSHRSYSCQVTHEGSTVEKTVAPTECS
For orientation: EC50 means the concentration at which the effect is half-maximal. A high value points to lower potency in that assay. Regarding B1, the figures for the EC50 in the assay with human CD3 and with human CLDN6 were 53.6 nM and 7.2 nM, respectively.

B2: IMC-16-3 scFv-Fab IgG antibody (bispecific antibody)
heavy: EVQLLESGGGLVQPGGSLRLSCAASGFTFSSYAMNWVRQAPGKGLEWVAGISSSGRYTGYADSVKGRFTISRDNSKNTLYLQMNSLRAEDTAVYYCAKSVGSGVSWSGYVATSLDAWGQGTLVTVSSASTKGPSVFPLAPSSKSTSGGTAALGCLVKDYFPEPVTVSWNSGALTSGVHTFPAVLQSSGLYSLSSVVTVPSSSLGTQTYICNVNHKPSNTKVDKKVEPKSCDKTHTCPPCPAPEAAGGPSVFLFPPKPKDTLMISRTPEVTCVVVDVSHEDPEVKFNWYVDGVEVHNAKTKPREEQYNSTYRVVSVLTVLHQDWLNGKEYKCKVSNKALPAPIEKTISKAKGQPREPQVYTLPPSREEMTKNQVSLWCLVKGFYPSDIAVEWESNGQPENNYKTTPPVLDSDGSFFLYSKLTVDKSRWQQGNVFSCSVMHEALHNHYTQKSLSLSPGK
light: SYELTQPPSVSVSPGQTARITCSAGSGLYGWYQQKPGQAPVLVIYGTNKRPSGIPERFSGSSSGTTVTLTISGVQAEDEADYYCGSADSSTNAGIFGGGTKLTVLGQPKAAPSVTLFPPSSEELQANKATLVCLISDFYPGAVTVAWKADSSPVKAGVETTTPSKQSNNKYAASSYLSLTPEQWKSHRSYSCQVTHEGSTVEKTVAPTECS
scFv: EVQLVESGGGLVQPGGSLRLSCAASGFTFSTYAMNWVRQAPGKGLEWVGRIRSKYNNYATYYADSVKGRFTISRDDSKNTLYLQMNSLRAEDTAVYYCVRHGNFGDSYVSWFAYWGQGTLVTVSSGKPGSGKPGSGKPGSGKPGSQAVVTQEPSLTVSPGGTVTLTCGSSTGAVTTSNYANWVQQKPGKSPRGLIGGTNKRAPGVPARFSGSLLGGKAALTISGAQPEDEADYYCALWYSNHWVFGGGTKLTVLASPKSSDKTHTCPPCPAPEAAGGPSVFLFPPKPKDTLMISRTPEVTCVVVDVSHEDPEVKFNWYVDGVEVHNAKTKPREEQYNSTYRVVSVLTVLHQDWLNGKEYKCKVSNKALPAPIEKTISKAKGQPREPQVYTLPPSREEMTKNQVSLSCAVKGFYPSDIAVEWESNGQPENNYKTTPPVLDSDGSFFLVSKLTVDKSRWQQGNVFSCSVMHEALHNHYTQKSLSLSPGK
Take B2: the concentration giving a half-maximal response (EC50) in the assay with human CD3 was found to be 3.46 nM; with human CLDN6 it was 13.7 nM.

B3: IMC-16-15 scFv-Fab IgG antibody (bispecific antibody)
heavy: EVQLLESGGGLVQPGGSLRLSCAASGFTFSSYAMNWVRQAPGKGLEWVAGISSSGRYTGYADSVKGRFTISRDNSKNTLYLQMNSLRAEDTAVYYCAKSMGSGVSWSGYVATSIDVWGQGTLVTVSSASTKGPSVFPLAPSSKSTSGGTAALGCLVKDYFPEPVTVSWNSGALTSGVHTFPAVLQSSGLYSLSSVVTVPSSSLGTQTYICNVNHKPSNTKVDKKVEPKSCDKTHTCPPCPAPEAAGGPSVFLFPPKPKDTLMISRTPEVTCVVVDVSHEDPEVKFNWYVDGVEVHNAKTKPREEQYNSTYRVVSVLTVLHQDWLNGKEYKCKVSNKALPAPIEKTISKAKGQPREPQVYTLPPSREEMTKNQVSLWCLVKGFYPSDIAVEWESNGQPENNYKTTPPVLDSDGSFFLYSKLTVDKSRWQQGNVFSCSVMHEALHNHYTQKSLSLSPGK
light: SYELTQPPSVSVSPGQTARITCSAGSGLYGWYQQKPGQAPVLVIYGTNKRPSGIPERFSGSSSGTTVTLTISGVQAEDEADYYCGSADSSTNAGIFGGGTKLTVLGQPKAAPSVTLFPPSSEELQANKATLVCLISDFYPGAVTVAWKADSSPVKAGVETTTPSKQSNNKYAASSYLSLTPEQWKSHRSYSCQVTHEGSTVEKTVAPTECS
scFv: EVQLVESGGGLVQPGGSLRLSCAASGFTFSTYAMNWVRQAPGKGLEWVGRIRSKYNNYATYYADSVKGRFTISRDDSKNTLYLQMNSLRAEDTAVYYCVRHGNFGDSYVSWFAYWGQGTLVTVSSGKPGSGKPGSGKPGSGKPGSQAVVTQEPSLTVSPGGTVTLTCGSSTGAVTTSNYANWVQQKPGKSPRGLIGGTNKRAPGVPARFSGSLLGGKAALTISGAQPEDEADYYCALWYSNHWVFGGGTKLTVLASPKSSDKTHTCPPCPAPEAAGGPSVFLFPPKPKDTLMISRTPEVTCVVVDVSHEDPEVKFNWYVDGVEVHNAKTKPREEQYNSTYRVVSVLTVLHQDWLNGKEYKCKVSNKALPAPIEKTISKAKGQPREPQVYTLPPSREEMTKNQVSLSCAVKGFYPSDIAVEWESNGQPENNYKTTPPVLDSDGSFFLVSKLTVDKSRWQQGNVFSCSVMHEALHNHYTQKSLSLSPGK
Turning to B3, the figures for the EC50 in the assay with human CD3 and in the assay with human CLDN6 were 2.62 nM and 24.1 nM, respectively.

B4: IMC-2-7 tandem scFv antibody (bispecific antibody)
scFv: SYELTQPPSVSVSPGQTARITCSAGSGLYGWYQQKPGQAPVLVIYGTNKRPSGIPERFSGSSSGTTVTLTISGVQAEDEADYYCGSADSSTNAGIFGGGTKLTVLGGGGSGGGGSGGGGSEVQLLESGGGLVQPGGSLRLSCAASGFTFSSYAMNWVRQAPGKGLEWVAGISSSGRYTGYADSVKGRFTISRDNSKNTLYLQMNSLRAEDTAVYYCAKSVGSGVSWSGYVATSLDAWGQGTLVTVSSGGGGSEVQLVESGGGLVQPGGSLRLSCAASGFTFSTYAMNWVRQAPGKGLEWVGRIRSKYNNYATYYADSVKGRFTISRDDSKNTLYLQMNSLRAEDTAVYYCVRHGNFGDSYVSWFAYWGQGTLVTVSSGKPGSGKPGSGKPGSGKPGSQAVVTQEPSLTVSPGGTVTLTCGSSTGAVTTSNYANWVQQKPGKSPRGLIGGTNKRAPGVPARFSGSLLGGKAALTISGAQPEDEADYYCALWYSNHWVFGGGTKLTVL
Regarding B4, the 50% effective concentration (EC50) with human CD3 was 7.3 nM; with human CLDN6 it was 40.5 nM.
